From publication PMC4267786

Biological target: native apolipoprotein D (apoD) from human plasma (human) (UniProt P05090)
Assay: ELISA; detergent-free dual-specific ELISA with purified components; capture anti-apoD D544, detection anti-apoB LDL20-biotin; LDL 333 ng/ml (or VLDL 1000 ng/ml, also with detergent) alone or with apoD 100 ng/ml, recombinant apoD 100 ng/ml, HDL2 or HDL3 1000 ng/ml; read as absorbance relative to LDL alone

Sequence of UniProt P05090 (P05090 21-189): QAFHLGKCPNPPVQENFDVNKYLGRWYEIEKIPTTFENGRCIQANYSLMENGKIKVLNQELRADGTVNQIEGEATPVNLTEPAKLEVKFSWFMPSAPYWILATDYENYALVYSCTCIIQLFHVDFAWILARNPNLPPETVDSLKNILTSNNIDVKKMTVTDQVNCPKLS

Work on “purified low density lipoprotein (LDL) (complex)” yielded a fold enhancement of LDL binding against LDL alone of 6 fold.
